B1: CE115HA000 Y100W one-arm antibody (antibody, human IgG1, kappa, L234A L235A, N297A, name in Kabat numbering)
heavy: QVQLVESGGGVVQPGRSLRLSCAASGFTFSNAWMHWVRQAPGKGLEWVAQIKAKSNNYATYYAESVKGRFTISRDDSKNSLYLQMNSLKTEDTAVYYCRYVHYGAWYGVDAWGQGTTVTVSSASTKGPSVFPLAPSSKSTSGGTAALGCLVKDYFPEPVTVSWNSGALTSGVHTFPAVLQSSGLYSLSSVVTVPSSSLGTQTYICNVNHKPSNTKVDKKVEPKSCDKTHTCPPCPAPEAAGGPSVFLFPPKPKDTLMISRTPEVTCVVVDVSHEDPEVKFNWYVDGVEVHNAKTKPREEQYASTYRVVSVLTVLHQDWLNGKEYKCKVSNKALPAPIEKTISKAKGQPREPQVYTLPPSRCELTKNQVSLSCAVKGFYPSDIAVEWESNGQPENNYKTTPPVLDSDGSFFLVSKLTVDKSRWQQGNVFSCSVMHEALHNHYTQKSLSLSPDYKDDDDK
chain: EPKSSDKTHTCPPCPAPELLGGPSVFLFPPKPKDTLMISRTPEVTCVVVDVSHEDPEVKFNWYVDGVEVHNAKTKPREEQYNSTYRVVSVLTVLHQDWLNGKEYKCKVSNKALPAPIEKTISKAKGQPREPQVCTLPPSRDELTKNQVSLWCLVKGFYPSDIAVEWESNGQPENNYKTTPPVLDSDGSFFLYSKLTVDKSRWQQGNVFSCSVMHEALHNRYTQKSLSLSP
light: DIVMTQSPLSLPVTPGEPASISCRSSQSLVHSNRNTYLHWYQQKPGQAPRLLIYKVSNRFSGVPDRFSGSGSGTDFTLKISRVEAEDVGVYYCGQGTQVPYTFGQGTKLEIKRTVAAPSVFIFPPSDEQLKSGTASVVCLLNNFYPREAKVQWKVDNALQSGNSQESVTEQDSKDSTYSLSSTLTLSKADYEKHKVYACEVTHQGLSSPVTKSFNRGEC
B2: CE115HA000 Y100aA one-arm antibody (antibody, human IgG1, kappa, L234A L235A, N297A, name in Kabat numbering)
heavy: QVQLVESGGGVVQPGRSLRLSCAASGFTFSNAWMHWVRQAPGKGLEWVAQIKAKSNNYATYYAESVKGRFTISRDDSKNSLYLQMNSLKTEDTAVYYCRYVHYGAYAGVDAWGQGTTVTVSSASTKGPSVFPLAPSSKSTSGGTAALGCLVKDYFPEPVTVSWNSGALTSGVHTFPAVLQSSGLYSLSSVVTVPSSSLGTQTYICNVNHKPSNTKVDKKVEPKSCDKTHTCPPCPAPEAAGGPSVFLFPPKPKDTLMISRTPEVTCVVVDVSHEDPEVKFNWYVDGVEVHNAKTKPREEQYASTYRVVSVLTVLHQDWLNGKEYKCKVSNKALPAPIEKTISKAKGQPREPQVYTLPPSRCELTKNQVSLSCAVKGFYPSDIAVEWESNGQPENNYKTTPPVLDSDGSFFLVSKLTVDKSRWQQGNVFSCSVMHEALHNHYTQKSLSLSPDYKDDDDK
chain: EPKSSDKTHTCPPCPAPELLGGPSVFLFPPKPKDTLMISRTPEVTCVVVDVSHEDPEVKFNWYVDGVEVHNAKTKPREEQYNSTYRVVSVLTVLHQDWLNGKEYKCKVSNKALPAPIEKTISKAKGQPREPQVCTLPPSRDELTKNQVSLWCLVKGFYPSDIAVEWESNGQPENNYKTTPPVLDSDGSFFLYSKLTVDKSRWQQGNVFSCSVMHEALHNRYTQKSLSLSP
light: DIVMTQSPLSLPVTPGEPASISCRSSQSLVHSNRNTYLHWYQQKPGQAPRLLIYKVSNRFSGVPDRFSGSGSGTDFTLKISRVEAEDVGVYYCGQGTQVPYTFGQGTKLEIKRTVAAPSVFIFPPSDEQLKSGTASVVCLLNNFYPREAKVQWKVDNALQSGNSQESVTEQDSKDSTYSLSSTLTLSKADYEKHKVYACEVTHQGLSSPVTKSFNRGEC
B3: CE115HA000 Y100aF one-arm antibody (antibody, human IgG1, kappa, L234A L235A, N297A, name in Kabat numbering)
heavy: QVQLVESGGGVVQPGRSLRLSCAASGFTFSNAWMHWVRQAPGKGLEWVAQIKAKSNNYATYYAESVKGRFTISRDDSKNSLYLQMNSLKTEDTAVYYCRYVHYGAYFGVDAWGQGTTVTVSSASTKGPSVFPLAPSSKSTSGGTAALGCLVKDYFPEPVTVSWNSGALTSGVHTFPAVLQSSGLYSLSSVVTVPSSSLGTQTYICNVNHKPSNTKVDKKVEPKSCDKTHTCPPCPAPEAAGGPSVFLFPPKPKDTLMISRTPEVTCVVVDVSHEDPEVKFNWYVDGVEVHNAKTKPREEQYASTYRVVSVLTVLHQDWLNGKEYKCKVSNKALPAPIEKTISKAKGQPREPQVYTLPPSRCELTKNQVSLSCAVKGFYPSDIAVEWESNGQPENNYKTTPPVLDSDGSFFLVSKLTVDKSRWQQGNVFSCSVMHEALHNHYTQKSLSLSPDYKDDDDK
chain: EPKSSDKTHTCPPCPAPELLGGPSVFLFPPKPKDTLMISRTPEVTCVVVDVSHEDPEVKFNWYVDGVEVHNAKTKPREEQYNSTYRVVSVLTVLHQDWLNGKEYKCKVSNKALPAPIEKTISKAKGQPREPQVCTLPPSRDELTKNQVSLWCLVKGFYPSDIAVEWESNGQPENNYKTTPPVLDSDGSFFLYSKLTVDKSRWQQGNVFSCSVMHEALHNRYTQKSLSLSP
light: DIVMTQSPLSLPVTPGEPASISCRSSQSLVHSNRNTYLHWYQQKPGQAPRLLIYKVSNRFSGVPDRFSGSGSGTDFTLKISRVEAEDVGVYYCGQGTQVPYTFGQGTKLEIKRTVAAPSVFIFPPSDEQLKSGTASVVCLLNNFYPREAKVQWKVDNALQSGNSQESVTEQDSKDSTYSLSSTLTLSKADYEKHKVYACEVTHQGLSSPVTKSFNRGEC
B4: CE115HA000 Y100aD one-arm antibody (antibody, human IgG1, kappa, L234A L235A, N297A, name in Kabat numbering)
heavy: QVQLVESGGGVVQPGRSLRLSCAASGFTFSNAWMHWVRQAPGKGLEWVAQIKAKSNNYATYYAESVKGRFTISRDDSKNSLYLQMNSLKTEDTAVYYCRYVHYGAYDGVDAWGQGTTVTVSSASTKGPSVFPLAPSSKSTSGGTAALGCLVKDYFPEPVTVSWNSGALTSGVHTFPAVLQSSGLYSLSSVVTVPSSSLGTQTYICNVNHKPSNTKVDKKVEPKSCDKTHTCPPCPAPEAAGGPSVFLFPPKPKDTLMISRTPEVTCVVVDVSHEDPEVKFNWYVDGVEVHNAKTKPREEQYASTYRVVSVLTVLHQDWLNGKEYKCKVSNKALPAPIEKTISKAKGQPREPQVYTLPPSRCELTKNQVSLSCAVKGFYPSDIAVEWESNGQPENNYKTTPPVLDSDGSFFLVSKLTVDKSRWQQGNVFSCSVMHEALHNHYTQKSLSLSPDYKDDDDK
chain: EPKSSDKTHTCPPCPAPELLGGPSVFLFPPKPKDTLMISRTPEVTCVVVDVSHEDPEVKFNWYVDGVEVHNAKTKPREEQYNSTYRVVSVLTVLHQDWLNGKEYKCKVSNKALPAPIEKTISKAKGQPREPQVCTLPPSRDELTKNQVSLWCLVKGFYPSDIAVEWESNGQPENNYKTTPPVLDSDGSFFLYSKLTVDKSRWQQGNVFSCSVMHEALHNRYTQKSLSLSP
light: DIVMTQSPLSLPVTPGEPASISCRSSQSLVHSNRNTYLHWYQQKPGQAPRLLIYKVSNRFSGVPDRFSGSGSGTDFTLKISRVEAEDVGVYYCGQGTQVPYTFGQGTKLEIKRTVAAPSVFIFPPSDEQLKSGTASVVCLLNNFYPREAKVQWKVDNALQSGNSQESVTEQDSKDSTYSLSSTLTLSKADYEKHKVYACEVTHQGLSSPVTKSFNRGEC
B5: CE115HA000 Y100aK one-arm antibody (antibody, human IgG1, kappa, L234A L235A, N297A, name in Kabat numbering)
heavy: QVQLVESGGGVVQPGRSLRLSCAASGFTFSNAWMHWVRQAPGKGLEWVAQIKAKSNNYATYYAESVKGRFTISRDDSKNSLYLQMNSLKTEDTAVYYCRYVHYGAYKGVDAWGQGTTVTVSSASTKGPSVFPLAPSSKSTSGGTAALGCLVKDYFPEPVTVSWNSGALTSGVHTFPAVLQSSGLYSLSSVVTVPSSSLGTQTYICNVNHKPSNTKVDKKVEPKSCDKTHTCPPCPAPEAAGGPSVFLFPPKPKDTLMISRTPEVTCVVVDVSHEDPEVKFNWYVDGVEVHNAKTKPREEQYASTYRVVSVLTVLHQDWLNGKEYKCKVSNKALPAPIEKTISKAKGQPREPQVYTLPPSRCELTKNQVSLSCAVKGFYPSDIAVEWESNGQPENNYKTTPPVLDSDGSFFLVSKLTVDKSRWQQGNVFSCSVMHEALHNHYTQKSLSLSPDYKDDDDK
chain: EPKSSDKTHTCPPCPAPELLGGPSVFLFPPKPKDTLMISRTPEVTCVVVDVSHEDPEVKFNWYVDGVEVHNAKTKPREEQYNSTYRVVSVLTVLHQDWLNGKEYKCKVSNKALPAPIEKTISKAKGQPREPQVCTLPPSRDELTKNQVSLWCLVKGFYPSDIAVEWESNGQPENNYKTTPPVLDSDGSFFLYSKLTVDKSRWQQGNVFSCSVMHEALHNRYTQKSLSLSP
light: DIVMTQSPLSLPVTPGEPASISCRSSQSLVHSNRNTYLHWYQQKPGQAPRLLIYKVSNRFSGVPDRFSGSGSGTDFTLKISRVEAEDVGVYYCGQGTQVPYTFGQGTKLEIKRTVAAPSVFIFPPSDEQLKSGTASVVCLLNNFYPREAKVQWKVDNALQSGNSQESVTEQDSKDSTYSLSSTLTLSKADYEKHKVYACEVTHQGLSSPVTKSFNRGEC
B6: CE115HA000 Y100aG one-arm antibody (antibody, human IgG1, kappa, L234A L235A, N297A, name in Kabat numbering)
heavy: QVQLVESGGGVVQPGRSLRLSCAASGFTFSNAWMHWVRQAPGKGLEWVAQIKAKSNNYATYYAESVKGRFTISRDDSKNSLYLQMNSLKTEDTAVYYCRYVHYGAYGGVDAWGQGTTVTVSSASTKGPSVFPLAPSSKSTSGGTAALGCLVKDYFPEPVTVSWNSGALTSGVHTFPAVLQSSGLYSLSSVVTVPSSSLGTQTYICNVNHKPSNTKVDKKVEPKSCDKTHTCPPCPAPEAAGGPSVFLFPPKPKDTLMISRTPEVTCVVVDVSHEDPEVKFNWYVDGVEVHNAKTKPREEQYASTYRVVSVLTVLHQDWLNGKEYKCKVSNKALPAPIEKTISKAKGQPREPQVYTLPPSRCELTKNQVSLSCAVKGFYPSDIAVEWESNGQPENNYKTTPPVLDSDGSFFLVSKLTVDKSRWQQGNVFSCSVMHEALHNHYTQKSLSLSPDYKDDDDK
chain: EPKSSDKTHTCPPCPAPELLGGPSVFLFPPKPKDTLMISRTPEVTCVVVDVSHEDPEVKFNWYVDGVEVHNAKTKPREEQYNSTYRVVSVLTVLHQDWLNGKEYKCKVSNKALPAPIEKTISKAKGQPREPQVCTLPPSRDELTKNQVSLWCLVKGFYPSDIAVEWESNGQPENNYKTTPPVLDSDGSFFLYSKLTVDKSRWQQGNVFSCSVMHEALHNRYTQKSLSLSP
light: DIVMTQSPLSLPVTPGEPASISCRSSQSLVHSNRNTYLHWYQQKPGQAPRLLIYKVSNRFSGVPDRFSGSGSGTDFTLKISRVEAEDVGVYYCGQGTQVPYTFGQGTKLEIKRTVAAPSVFIFPPSDEQLKSGTASVVCLLNNFYPREAKVQWKVDNALQSGNSQESVTEQDSKDSTYSLSSTLTLSKADYEKHKVYACEVTHQGLSSPVTKSFNRGEC
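Further: Single-residue variant antibodies injected as analyte over CD3ε homodimer immobilized by amine coupling, run at 25 °C in HBS-EP+ buffer.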

This assay deals with T1, CD3ε homodimer protein (human, UniProt P07766 23-126, limits assumed, sulfo-tag or biotin label in the ECL assays; amine-coupled to the chip in SPR).
T1 construct: also called human CD3ε homodimer protein; CD3 (CD3ε)
T1 sequence (P07766 23-126 limits assumed): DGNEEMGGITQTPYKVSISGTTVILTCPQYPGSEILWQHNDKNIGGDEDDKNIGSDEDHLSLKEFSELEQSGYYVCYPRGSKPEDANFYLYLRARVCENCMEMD
As to the kind of experiment: SPR Biacore T200; CD3ε homodimer on CM4 chip. (In SPR one partner is held on a chip, and binding of the other changes the refractive index at the surface.)
Regarding B1, the “ratio of amounts bound Z=Y/X (altered form / CE115HA000)” value came out at 1.03.

Consider B2, for which the “ratio of amounts bound Z=Y/X (altered form / CE115HA000)” value is 0.62.

As to B3, the “ratio of amounts bound Z=Y/X (altered form / CE115HA000)” value came out at 0.87.

For B4, the “ratio of amounts bound Z=Y/X (altered form / CE115HA000)” value was 0.31.

On to B5, for which the “ratio of amounts bound Z=Y/X (altered form / CE115HA000)” value turned out to be 0.9.

As for B6, the “ratio of amounts bound Z=Y/X (altered form / CE115HA000)” value stood at 1.23.

For the origin of these results see patent US20260049138A1 (Chugai, published 2026).
